According to US20260116944A1, “NOVEL TRIPLE GLP-1/GIP/GLUCAGON RECEPTOR AGONIST AND A PHARMACEUTICAL COMPOSITION FOR PREVENTING OR TREATING OBESITY COMPRISING THE SAME” (HANMI PHARM. CO., LTD., priority 2022, published 2026):
*1 amine or outer side, *2 acyl side, *3 side chain or, on linkers, in order; H or OH if unused. Bridges are numbered along the chain shown (N, C = ends). Where no end group is shown, it is not given here. Side-chain parts run from the residue outwards. [ ]: non-standard residue; d: D form. The star is where a group is joined. C20 diacid = O=C(O)CCCCCCCCCCCCCCCCCCC(=O)*; γGlu = O=C(O)[C@H](CCC(=O)[*:2])N[*:1]; AEEA = NCCOCCOCC(=O)O; Aib = CC(C)(N)C(=O)O

T1: human GIP receptor (human, UniProt P48546 22-466)
T1 sequence (looked up): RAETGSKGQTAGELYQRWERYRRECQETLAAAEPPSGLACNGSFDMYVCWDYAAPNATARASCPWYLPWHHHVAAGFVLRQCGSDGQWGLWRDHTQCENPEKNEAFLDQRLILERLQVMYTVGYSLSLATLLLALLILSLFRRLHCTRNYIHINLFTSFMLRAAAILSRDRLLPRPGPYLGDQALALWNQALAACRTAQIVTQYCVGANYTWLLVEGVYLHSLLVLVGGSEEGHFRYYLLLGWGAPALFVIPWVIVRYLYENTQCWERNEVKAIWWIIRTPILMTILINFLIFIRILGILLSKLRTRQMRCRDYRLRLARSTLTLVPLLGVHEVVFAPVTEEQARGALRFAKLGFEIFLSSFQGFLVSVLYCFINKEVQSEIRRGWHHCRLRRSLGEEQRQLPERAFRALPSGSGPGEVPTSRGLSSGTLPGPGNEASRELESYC


Key:
Assay in all cases: cell-based or functional assay
human GCG receptor = human GCG receptor (human, UniProt P47871 26-477)
Sequence of human GCG receptor (P47871 26-477): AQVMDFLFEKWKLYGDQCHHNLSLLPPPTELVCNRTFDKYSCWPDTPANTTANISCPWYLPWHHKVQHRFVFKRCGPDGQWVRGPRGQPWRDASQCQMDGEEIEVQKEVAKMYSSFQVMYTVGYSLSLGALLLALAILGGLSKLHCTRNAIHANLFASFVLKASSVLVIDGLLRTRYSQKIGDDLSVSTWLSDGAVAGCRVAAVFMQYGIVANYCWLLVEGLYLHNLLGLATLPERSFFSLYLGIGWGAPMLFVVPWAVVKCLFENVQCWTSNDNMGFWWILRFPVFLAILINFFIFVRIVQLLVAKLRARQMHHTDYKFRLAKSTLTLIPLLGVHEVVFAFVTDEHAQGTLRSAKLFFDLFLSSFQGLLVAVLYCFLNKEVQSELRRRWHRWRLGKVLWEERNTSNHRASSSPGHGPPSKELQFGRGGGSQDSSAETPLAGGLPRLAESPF

human GIP receptor = target: T1, human GIP receptor
human GLP-1 receptor = human GLP-1 receptor (human, UniProt P43220 24-463)

Binder | In vitro Activity Compared to Native Peptide (%) vs. Glucagon (relative titer from cAMP EC50) (human GCG receptor) | In vitro Activity Compared to Native Peptide (%) vs. GIP (relative titer from cAMP EC50) (human GIP receptor) | In vitro Activity Compared to Native Peptide (%) vs. GLP-1 (relative titer from cAMP EC50) (human GLP-1 receptor)
Y[Aib]QGTFTSDYSK([AEEA-AEEA-γGlu-C20 diacid])YLDEKAAKEFVQWLLDHHPSSGQPPPS-NH2 (lactam 16-20; N-terminus assumed; SMILES CC(C)C[C@H](NC(=O)[C@H](Cc1ccc(O)cc1)NC(=O)[C@H](CCCCNC(=O)COCCOCCNC(=O)COCCOCCNC(=O)CC[C@H](NC(=O)CCCCCCCCCCCCCCCCCCC(=O)O)C(=O)O)NC(=O)[C@H](CO)NC(=O)[C@H](Cc1ccc(O)cc1)NC(=O)[C@H](CC(=O)O)NC(=O)[C@H](CO)NC(=O)[C@@H](NC(=O)[C@H](Cc1ccccc1)NC(=O)[C@@H](NC(=O)CNC(=O)[C@H](CCC(N)=O)NC(=O)C(C)(C)NC(=O)[C@@H](N)Cc1ccc(O)cc1)[C@@H](C)O)[C@@H](C)O)C(=O)N[C@@H](CC(=O)O)C(=O)N[C@H]1CCC(=O)NCCCC[C@@H](C(=O)N[C@@H](CCC(=O)O)C(=O)N[C@@H](Cc2ccccc2)C(=O)N[C@H](C(=O)N[C@@H](CCC(N)=O)C(=O)N[C@@H](Cc2c[nH]c3ccccc23)C(=O)N[C@@H](CC(C)C)C(=O)N[C@@H](CC(C)C)C(=O)N[C@@H](CC(=O)O)C(=O)N[C@@H](Cc2c[nH]cn2)C(=O)N[C@@H](Cc2c[nH]cn2)C(=O)N2CCC[C@H]2C(=O)N[C@@H](CO)C(=O)N[C@@H](CO)C(=O)NCC(=O)N[C@@H](CCC(N)=O)C(=O)N2CCC[C@H]2C(=O)N2CCC[C@H]2C(=O)N2CCC[C@H]2C(=O)N[C@@H](CO)C(N)=O)C(C)C)NC(=O)[C@H](C)NC(=O)[C@H](C)NC(=O)[C@H](CCCCN)NC1=O) [triple agonist of SEQ ID NO: 1] | 0.33 % of human GCG | 5.18 % of human GIP | 5.88 % of human GLP-1
Y[Aib]QGTFTSDYSK([AEEA-AEEA-γGlu-C20 diacid])YLDEKRAKDFVQWLLDHHPSSGQPPPS-NH2 (lactam 16-20; N-terminus assumed; SMILES CC(C)C[C@H](NC(=O)[C@H](Cc1ccc(O)cc1)NC(=O)[C@H](CCCCNC(=O)COCCOCCNC(=O)COCCOCCNC(=O)CC[C@H](NC(=O)CCCCCCCCCCCCCCCCCCC(=O)O)C(=O)O)NC(=O)[C@H](CO)NC(=O)[C@H](Cc1ccc(O)cc1)NC(=O)[C@H](CC(=O)O)NC(=O)[C@H](CO)NC(=O)[C@@H](NC(=O)[C@H](Cc1ccccc1)NC(=O)[C@@H](NC(=O)CNC(=O)[C@H](CCC(N)=O)NC(=O)C(C)(C)NC(=O)[C@@H](N)Cc1ccc(O)cc1)[C@@H](C)O)[C@@H](C)O)C(=O)N[C@@H](CC(=O)O)C(=O)N[C@H]1CCC(=O)NCCCC[C@@H](C(=O)N[C@@H](CC(=O)O)C(=O)N[C@@H](Cc2ccccc2)C(=O)N[C@H](C(=O)N[C@@H](CCC(N)=O)C(=O)N[C@@H](Cc2c[nH]c3ccccc23)C(=O)N[C@@H](CC(C)C)C(=O)N[C@@H](CC(C)C)C(=O)N[C@@H](CC(=O)O)C(=O)N[C@@H](Cc2c[nH]cn2)C(=O)N[C@@H](Cc2c[nH]cn2)C(=O)N2CCC[C@H]2C(=O)N[C@@H](CO)C(=O)N[C@@H](CO)C(=O)NCC(=O)N[C@@H](CCC(N)=O)C(=O)N2CCC[C@H]2C(=O)N2CCC[C@H]2C(=O)N2CCC[C@H]2C(=O)N[C@@H](CO)C(N)=O)C(C)C)NC(=O)[C@H](C)NC(=O)[C@H](CCCNC(=N)N)NC(=O)[C@H](CCCCN)NC1=O) [triple agonist of SEQ ID NO: 4] | 2.36 % of human GCG | 3.81 % of human GIP | 3.71 % of human GLP-1
Y[Aib]QGTFTSDYSK([AEEA-AEEA-γGlu-C20 diacid])ALDEKRAKEFVQWLLDQHPSSGQPPPS-NH2 (lactam 16-20; N-terminus assumed; SMILES CC(C)C[C@H](NC(=O)[C@H](C)NC(=O)[C@H](CCCCNC(=O)COCCOCCNC(=O)COCCOCCNC(=O)CC[C@H](NC(=O)CCCCCCCCCCCCCCCCCCC(=O)O)C(=O)O)NC(=O)[C@H](CO)NC(=O)[C@H](Cc1ccc(O)cc1)NC(=O)[C@H](CC(=O)O)NC(=O)[C@H](CO)NC(=O)[C@@H](NC(=O)[C@H](Cc1ccccc1)NC(=O)[C@@H](NC(=O)CNC(=O)[C@H](CCC(N)=O)NC(=O)C(C)(C)NC(=O)[C@@H](N)Cc1ccc(O)cc1)[C@@H](C)O)[C@@H](C)O)C(=O)N[C@@H](CC(=O)O)C(=O)N[C@H]1CCC(=O)NCCCC[C@@H](C(=O)N[C@@H](CCC(=O)O)C(=O)N[C@@H](Cc2ccccc2)C(=O)N[C@H](C(=O)N[C@@H](CCC(N)=O)C(=O)N[C@@H](Cc2c[nH]c3ccccc23)C(=O)N[C@@H](CC(C)C)C(=O)N[C@@H](CC(C)C)C(=O)N[C@@H](CC(=O)O)C(=O)N[C@@H](CCC(N)=O)C(=O)N[C@@H](Cc2c[nH]cn2)C(=O)N2CCC[C@H]2C(=O)N[C@@H](CO)C(=O)N[C@@H](CO)C(=O)NCC(=O)N[C@@H](CCC(N)=O)C(=O)N2CCC[C@H]2C(=O)N2CCC[C@H]2C(=O)N2CCC[C@H]2C(=O)N[C@@H](CO)C(N)=O)C(C)C)NC(=O)[C@H](C)NC(=O)[C@H](CCCNC(=N)N)NC(=O)[C@H](CCCCN)NC1=O) [triple agonist of SEQ ID NO: 5] | 1.51 % of human GCG | 5.29 % of human GIP | 2.36 % of human GLP-1

The next lines start with the values.

In vitro Activity Compared to Native Peptide (%) vs. Glucagon (relative titer from cAMP EC50) (human GCG receptor) | In vitro Activity Compared to Native Peptide (%) vs. GIP (relative titer from cAMP EC50) (human GIP receptor) | In vitro Activity Compared to Native Peptide (%) vs. GLP-1 (relative titer from cAMP EC50) (human GLP-1 receptor) | Binder
1.36 % of human GCG | 6.11 % of human GIP | 7.94 % of human GLP-1 | H[Aib]HGTFTSDYSK([AEEA-AEEA-γGlu-C20 diacid])YLDEKAAKDFVQWLLDQHPSSGQPPPS-NH2 (lactam 16-20; N-terminus assumed; SMILES CC(C)C[C@H](NC(=O)[C@H](Cc1ccc(O)cc1)NC(=O)[C@H](CCCCNC(=O)COCCOCCNC(=O)COCCOCCNC(=O)CC[C@H](NC(=O)CCCCCCCCCCCCCCCCCCC(=O)O)C(=O)O)NC(=O)[C@H](CO)NC(=O)[C@H](Cc1ccc(O)cc1)NC(=O)[C@H](CC(=O)O)NC(=O)[C@H](CO)NC(=O)[C@@H](NC(=O)[C@H](Cc1ccccc1)NC(=O)[C@@H](NC(=O)CNC(=O)[C@H](Cc1c[nH]cn1)NC(=O)C(C)(C)NC(=O)[C@@H](N)Cc1c[nH]cn1)[C@@H](C)O)[C@@H](C)O)C(=O)N[C@@H](CC(=O)O)C(=O)N[C@H]1CCC(=O)NCCCC[C@@H](C(=O)N[C@@H](CC(=O)O)C(=O)N[C@@H](Cc2ccccc2)C(=O)N[C@H](C(=O)N[C@@H](CCC(N)=O)C(=O)N[C@@H](Cc2c[nH]c3ccccc23)C(=O)N[C@@H](CC(C)C)C(=O)N[C@@H](CC(C)C)C(=O)N[C@@H](CC(=O)O)C(=O)N[C@@H](CCC(N)=O)C(=O)N[C@@H](Cc2c[nH]cn2)C(=O)N2CCC[C@H]2C(=O)N[C@@H](CO)C(=O)N[C@@H](CO)C(=O)NCC(=O)N[C@@H](CCC(N)=O)C(=O)N2CCC[C@H]2C(=O)N2CCC[C@H]2C(=O)N2CCC[C@H]2C(=O)N[C@@H](CO)C(N)=O)C(C)C)NC(=O)[C@H](C)NC(=O)[C@H](C)NC(=O)[C@H](CCCCN)NC1=O) [triple agonist of SEQ ID NO: 6]
3.32 % of human GCG | 5.26 % of human GIP | 4.21 % of human GLP-1 | Y[Aib]QGTFTSDYSK([AEEA-AEEA-γGlu-C20 diacid])YLDEKRAKDFVQWLLDQHPSSGQPPPS-NH2 (lactam 16-20; N-terminus assumed; SMILES CC(C)C[C@H](NC(=O)[C@H](Cc1ccc(O)cc1)NC(=O)[C@H](CCCCNC(=O)COCCOCCNC(=O)COCCOCCNC(=O)CC[C@H](NC(=O)CCCCCCCCCCCCCCCCCCC(=O)O)C(=O)O)NC(=O)[C@H](CO)NC(=O)[C@H](Cc1ccc(O)cc1)NC(=O)[C@H](CC(=O)O)NC(=O)[C@H](CO)NC(=O)[C@@H](NC(=O)[C@H](Cc1ccccc1)NC(=O)[C@@H](NC(=O)CNC(=O)[C@H](CCC(N)=O)NC(=O)C(C)(C)NC(=O)[C@@H](N)Cc1ccc(O)cc1)[C@@H](C)O)[C@@H](C)O)C(=O)N[C@@H](CC(=O)O)C(=O)N[C@H]1CCC(=O)NCCCC[C@@H](C(=O)N[C@@H](CC(=O)O)C(=O)N[C@@H](Cc2ccccc2)C(=O)N[C@H](C(=O)N[C@@H](CCC(N)=O)C(=O)N[C@@H](Cc2c[nH]c3ccccc23)C(=O)N[C@@H](CC(C)C)C(=O)N[C@@H](CC(C)C)C(=O)N[C@@H](CC(=O)O)C(=O)N[C@@H](CCC(N)=O)C(=O)N[C@@H](Cc2c[nH]cn2)C(=O)N2CCC[C@H]2C(=O)N[C@@H](CO)C(=O)N[C@@H](CO)C(=O)NCC(=O)N[C@@H](CCC(N)=O)C(=O)N2CCC[C@H]2C(=O)N2CCC[C@H]2C(=O)N2CCC[C@H]2C(=O)N[C@@H](CO)C(N)=O)C(C)C)NC(=O)[C@H](C)NC(=O)[C@H](CCCNC(=N)N)NC(=O)[C@H](CCCCN)NC1=O) [triple agonist of SEQ ID NO: 7]
